Results on 9 substances are retold here after patent US11306156.

In assay [1] the target is D3H44 light chain Q124E_S131T_T178Y_T180E, N-terminal HA or FLAG tag. As to the kind of experiment: LCCA, SPR of light chain tags, L1:L2 DNA 1:3 norm. to 1:1; other light chain m17.
Assay [2] deals with D3H44 light chain Q124E_S176L_T180E, N-terminal HA or FLAG tag. The assay is described as above.
Assay [3] has as its target D3H44 light chain Q124E_V133D_S176L, N-terminal HA or FLAG tag. The assay is described as above.
Assay [4] deals with D3H44 light chain Q124R, N-terminal HA or FLAG tag. As to the kind of experiment: LCCA, SPR of light chain tags, L1:L2 DNA 1:3 norm. to 1:1; other light chain m28.
In assay [5] the target is D3H44 light chain Q124E_V133D, N-terminal HA or FLAG tag. As to the kind of experiment: LCCA, SPR of light chain tags, L1:L2 DNA 1:9 norm. to 1:1; other light chain m24.
The target of assay [6] is D3H44 light chain Q124R, N-terminal HA or FLAG tag. As to the kind of experiment: LCCA, SPR of light chain tags, L1:L2 DNA 1:9 norm. to 1:1; other light chain m28.
The target of assay [7] is D3H44 light chain Q124R_Q160K_T178R, N-terminal HA or FLAG tag. As to the kind of experiment: LCCA, SPR of light chain tags, L1:L2 DNA 1:3 norm. to 1:1; other light chain m15.
The target is the same in assay [8]. As to the kind of experiment: LCCA, SPR of light chain tags, L1:L2 DNA 1:3 norm. to 1:1; other light chain m27.
Assay [9] concerns the target D3H44 light chain Q124R, N-terminal HA or FLAG tag. As to the kind of experiment: LCCA, SPR of light chain tags, L1:L2 DNA 1:3 norm. to 1:1; other light chain m18.
In assay [10] the target is D3H44 light chain Q124E_V133E, N-terminal HA or FLAG tag. As to the kind of experiment: LCCA, SPR of light chain tags, L1:L2 DNA 1:3 norm. to 1:1; other light chain m24.
Assay [11] deals with D3H44 light chain Q124E_V133D, N-terminal HA or FLAG tag. The description is as above.
For assay [12], the target named is D3H44 light chain Q124R_Q160K_T178R, N-terminal HA or FLAG tag. As to the kind of experiment: LCCA, SPR of light chain tags, L1:L2 DNA 1:3 norm. to 1:1; other light chain m16.
For assay [13] the target is unchanged. As to the kind of experiment: LCCA, SPR of light chain tags, L1:L2 DNA 1:9 norm. to 1:1; other light chain m27.
The target in assay [14] is D3H44 light chain Q124E_V133D_S176L, N-terminal HA or FLAG tag. As to the kind of experiment: LCCA, SPR of light chain tags, L1:L2 DNA 1:9 norm. to 1:1; other light chain m17.
For assay [15], the target named is D3H44 light chain Q124E_Q160E_T178E, N-terminal HA or FLAG tag. As to the kind of experiment: LCCA, SPR of light chain tags, L1:L2 DNA 1:3 norm. to 1:1; other light chain m17.
For assay [16], the target named is D3H44 light chain Q124E_T178E_T180E, N-terminal HA or FLAG tag. The assay is described as above.
The target of assay [17] is D3H44 light chain Q124R_T178R, N-terminal HA or FLAG tag. As to the kind of experiment: LCCA, SPR of light chain tags, L1:L2 DNA 1:3 norm. to 1:1; other light chain m20.
For assay [18], the target named is D3H44 light chain Q124E_S131T_T178Y_T180E, N-terminal HA or FLAG tag. As to the kind of experiment: LCCA, SPR of light chain tags, L1:L2 DNA 1:3 norm. to 1:1; other light chain m14.
Assay [19] deals with D3H44 light chain Q124E_S131T_T178F_T180E, N-terminal HA or FLAG tag. The description is as above.
In assay [20] the target is D3H44 light chain Q124R_T178R, N-terminal HA or FLAG tag. As to the kind of experiment: LCCA, SPR of light chain tags, L1:L2 DNA 1:3 norm. to 1:1; other light chain m15.
The target of assay [21] is D3H44 light chain Q124R_Q160K_T178R, N-terminal HA or FLAG tag. As to the kind of experiment: LCCA, SPR of light chain tags, L1:L2 DNA 1:3 norm. to 1:1; other light chain m21.
For assay [22] the target is unchanged. As to the kind of experiment: LCCA, SPR of light chain tags, L1:L2 DNA 1:3 norm. to 1:1; other light chain m23.
The target in assay [23] is D3H44 light chain Q124E_T178E, N-terminal HA or FLAG tag. As to the kind of experiment: LCCA, SPR of light chain tags, L1:L2 DNA 1:3 norm. to 1:1; other light chain m17.
For assay [24], the target named is D3H44 light chain Q124R_T178R, N-terminal HA or FLAG tag. As to the kind of experiment: LCCA, SPR of light chain tags, L1:L2 DNA 1:9 norm. to 1:1; other light chain m15.
For assay [25] the target is unchanged. As to the kind of experiment: LCCA, SPR of light chain tags, L1:L2 DNA 1:9 norm. to 1:1; other light chain m16.
Assay [26] addresses D3H44 light chain Q124E_S176L_T180E, N-terminal HA or FLAG tag. As to the kind of experiment: LCCA, SPR of light chain tags, L1:L2 DNA 1:3 norm. to 1:1; other light chain m14.
The target of assay [27] is D3H44 light chain Q124R_Q160K_T178R, N-terminal HA or FLAG tag. As to the kind of experiment: LCCA, SPR of light chain tags, L1:L2 DNA 1:3 norm. to 1:1; other light chain m26.
The target in assay [28] is D3H44 light chain Q124R_T178R, N-terminal HA or FLAG tag. As to the kind of experiment: LCCA, SPR of light chain tags, L1:L2 DNA 1:3 norm. to 1:1; other light chain m16.
In assay [29] the target is D3H44 light chain Q124R_Q160K_T178R, N-terminal HA or FLAG tag. As to the kind of experiment: LCCA, SPR of light chain tags, L1:L2 DNA 1:9 norm. to 1:1; other light chain m21.
For assay [30], the target named is D3H44 light chain Q124E_S131T_T178Y_T180E, N-terminal HA or FLAG tag. As to the kind of experiment: LCCA, SPR of light chain tags, L1:L2 DNA 1:9 norm. to 1:1; other light chain m14.
Assay [31] has as its target D3H44 light chain Q124E_S176L_T180E, N-terminal HA or FLAG tag. The description is as above.
Assay [32] has as its target D3H44 light chain Q124E_T178E_T180E, N-terminal HA or FLAG tag. As to the kind of experiment: LCCA, SPR of light chain tags, L1:L2 DNA 1:9 norm. to 1:1; other light chain m17.
Assay [33] concerns the target tissue factor (TF) antigen (UniProt P13726). As to the kind of experiment: SPR, Fab captured on anti-penta His, TF injected; * estimated value taken from a Fab differing only in the L chain tag.
For assay [34] the target is unchanged. As to the kind of experiment: SPR, Fab captured by anti-His, TF as analyte; * estimated from Fab differing only in L chain tag.
The target is the same in assay [35]. As to the kind of experiment: SPR; reference wild-type D3H44 Fab; * estimated value.
The target of assay [36] is D3H44 Fab heavy chain S186K, C-terminal ABD2-His6 tag. As to the kind of experiment: LCCA: heavy chain co-expressed with two light chains, SPR detection of light chain tags; L1:L2 DNA 1:3, normalized to 1:1; competing light chain m11.
Assay [37] deals with D3H44 Fab heavy chain Q179K, C-terminal ABD2-His6 tag. Described as above.
Assay [38] deals with D3H44 Fab heavy chain L143E_K145T_S188L, C-terminal ABD2-His6 tag. Described as above.
Assay [39] deals with D3H44 Fab heavy chain L143E_K145T, C-terminal ABD2-His6 tag. Described as above.

Turning to “D3H44 Fab heavy chain L143E_K145T_S188L, ABD2-His6 tagged”, the H1L1:H1L2 normalized median ratio worked out at 26% in assay [1]; 43% in assay [2]; 23% in assay [3]; 84% in assay [4]; 21% in [5]; 79% in assay [6]. Further, the H1L1:H1L2 normalized median ratio in assay [7] is 74%; in assay [8] it was 77%; in assay [9] it was 69%; in assay [10] it was 31%; in [11] it was 16%; in [12], 57%. Also, the H1L1:H1L2 normalized median ratio in assay [13] was 76%; in assay [14] it was 24%. Besides, the H1L1:H1L2 normalized median scalar value ln(r1/f1) was 1.63 in assay [4]; 1.32 in assay [6]; 1.03 in assay [7]; 1.22 in assay [8]; 0.81 in [9]; 0.28 in assay [12]. The H1L1:H1L2 normalized median scalar value ln(r1/f1) in [13] was 4.

As to “D3H44 Fab heavy chain L143K_D146G, ABD2-His6 tagged”, the H2L2:H2L1 normalized median ratio in [4] was determined as 9%; in [5], 88%; in assay [6], 12%; in assay [11], 91%.

For “D3H44 Fab heavy chain Q179K, ABD2-His6 tagged”, the H2L2:H2L1 normalized median ratio came out at 95% in [1]; 98% in assay [15]; 94% in assay [16]; 6% in assay [17]; 93% in assay [18]; 94% in assay [19]. The H2L2:H2L1 normalized median ratio in assay [7] is 5%; in assay [20], 7%; in [21], 6%; in assay [22], 2%.

Take “D3H44 Fab heavy chain Q179R, ABD2-His6 tagged”: the H2L2:H2L1 normalized median ratio amounted to 97% in assay [23]; 98% in [2]; 97% in assay [15]; 93% in [16]; 9% in assay [24]; 4% in assay [17]. Moreover, the H2L2:H2L1 normalized median ratio in assay [25] is 15%; in assay [18] it was 94%; in assay [26], 93%; in assay [19], 96%; in assay [20] it was 6%; in [27], 3%. For the same substance, the H2L2:H2L1 normalized median ratio in assay [21] is 7%; in [12], 2%; in assay [28], 7%; in [22], 3%; in assay [29] it was 8%; in assay [30], 91%. The H2L2:H2L1 normalized median ratio in assay [31] turned out to be 85%; in [32] it was 92%.

With “D3H44 Fab heterodimer H L124E_L143E_K145T / L Q124K_V133G_S176R_T178K (H1L1 Fab of LCCA Set # 9298)”, in assay [33], the Change in KD with respect to wild type (-(log(KD design) - log(KD wt))) is -0.12 and the dissociation constant Kd is 0.21 nM.

Regarding “D3H44 Fab heterodimer, heavy L124E_L143E_K145T / light Q124K_V133G_S176R_T178K”, the dissociation constant Kd in [34] was 0.21 nM. In addition, the Change in KD of h1|1 Fab heterodimer with respect to wild type (-(log(KD design) - log(KD wt))) in assay [35] was -0.12.

Turning to “D3H44 Fab heterodimer, heavy L124E_L143E_K145T / light Q124K_V133G_S176R_T178R”, the Kd in assay [34] is 0.18 nM. The Change in KD of h1|1 Fab heterodimer with respect to wild type (-(log(KD design) - log(KD wt))) in assay [35] is -0.07.

On to “D3H44 light chain Q124E_S176L_T180E, N-terminal HA or FLAG tag”, for which the H2L2:H2L1 normalized median ratio in assay [36] and in [37] was 97% in each case. Besides, the H1L1:H1L2 normalized median ratio in [38] is 43%.

For “D3H44 light chain S131E, N-terminal HA or FLAG tag”, in [37], the H2L2:H2L1 normalized median ratio was found to be 98%. In addition, the H1L1:H1L2 normalized median ratio in [39] came to 53%.
